{"source": "the supplement of paper PMC12636428", "data": [{"tested_on": "Saccharomyces cerevisiae", "experiment": "transcriptional activation domain activity (GFP:mCherry ratio, weighted mean of sorted bins, harmonized to initial dataset scale) (arbitrary fluorescence ratio units); higher = stronger transcriptional activation", "details": "beta-estradiol 1 µM; induction time 4 h", "outline": "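After a 1:5 dilution into SC with 1 uM beta-estradiol and 4 hours at 30 °C, yeast diploids carrying a GFP reporter and URA3-integrated barcoded tiles were sorted into 8 bins by GFP:mCherry ratio. The tiles were fused to an estradiol-inducible synthetic transcription factor. Barcodes were sequenced, tiles below 50 reads were discarded, and activation activity was taken as the read-weighted mean of bin median fluorescence, averaged across barcodes and linearly mapped onto the initial dataset scale.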", "values": [{"sequence": "ISAQEFSRNFTEDVDESLQSEIDLMNYDNEALNQLMAIDLDKLLGIFPNLSNF", "transcriptional activation domain activity": 140000}, {"sequence": "ISCAVSACIVCVINCAVTVWASVNNKANKGVLFEGDCEKVRQMNTGLHLLINL", "transcriptional activation domain activity": 66400}, {"sequence": "ISCLGLTGWAGRFGSLYYIISMGGCSLSLGAMIAHVELKDSANCWWWFRYGFW", "transcriptional activation domain activity": 77400}, {"sequence": "ISGQEHKDMCRILLGLIIDLPLPSGQVTSRIIRLVHALLDFLYLAQLPSQTTN", "transcriptional activation domain activity": 61400}, {"sequence": "ISIAQIEIAILFHISFFIFYFVSISFLLLYFICCILCTYVLLIYSLSFLYLVV", "transcriptional activation domain activity": 45800}, {"sequence": "ISICLPELRLFMYCKFLYWLEVMSLLNDLEHVKQMLKDVLGCGKMQLKVFKFT", "transcriptional activation domain activity": 62000}, {"sequence": "ISKTIAVLELACDVLHHNPGVFIISVLLLVIFIAFTAIWMVLFNRLWLIGHLN", "transcriptional activation domain activity": 56000}, {"sequence": "ISLCLLHCVIMVFGLGLQLLVPSIYTRIEHVSYESTWNFAYYCAGWFMLKVCI", "transcriptional activation domain activity": 38100}, {"sequence": "ISLGDFIVTLNYLFCYFLMQAPSLKLKPTSLFFFFLCIWLDFVLCLLILLRVA", "transcriptional activation domain activity": 46400}, {"sequence": "ISLLTLSFFYCFLGVFLPGFSLSLLPFPLFCFFLAFFLPCFSLSLLPFYPFFF", "transcriptional activation domain activity": 56500}, {"sequence": "ISLLVLGCWIPFIILMEGYLQSLTFESFPYPGLYCFTSQGSHIIYLCWVLIAI", "transcriptional activation domain activity": 60200}, {"sequence": "ISLVYGVRLAIRSSIFVTVRTHLARSIRYQSGLRAKQPIPTRLFLLYFLQLKY", "transcriptional activation domain activity": 56900}, {"sequence": "ISMEKIGRRAFNKGMKNIDEGPETENDATENSLTTILNDLEGPLEDFSENFID", "transcriptional activation domain activity": 34300}, {"sequence": "ISNHQVYADWWYAWCLTYFMGTHKDIFIVLKKSLKWLPIVGWGMQFFNFIFLA", "transcriptional activation domain activity": 48400}, {"sequence": "ISSISSIFPIFFPYFPSIYLIFFFIFFLPFFPSLPILLFLLFLLFLLFTLPLC", "transcriptional activation domain activity": 43700}, {"sequence": "ISSSEKESDGENDSDSEENEQNDQSEIFPEFLGRRDPWQAVTVFILALLVFRN", "transcriptional activation domain activity": 66500}, {"sequence": "ISTAYFSNECGLVDRLITLAFLALKSKTDMSMVAYHSYCAIIEASLHSRGIWN", "transcriptional activation domain activity": 57300}, {"sequence": "ISVLGNQQIPGISHGDGLLPDVDGLLGNDTFWSFTDAAWMGEIEDNISGFIWD", "transcriptional activation domain activity": 143000}, {"sequence": "ISVLLVPYAWAILLAFLLLPVFLCVICMDWTYIPFYLPFFPMIGVFSIVIPLF", "transcriptional activation domain activity": 21100}, {"sequence": "ISYVSLEIRRTVFGLRLFAVAFYCTFFYWLMIRPNCKARFWCNFQPFSWIQAI", "transcriptional activation domain activity": 43100}, {"sequence": "ITALVIFWSIPVAFVGSLSNLDSLTNKVHFLRFLNHLPKKLKGLVTSLLPTIL", "transcriptional activation domain activity": 34700}, {"sequence": "ITFLFIFFFYFFTYSFFYISFFRTCFPEFAHQMFEMVLLWNLFLLFVFCLFFF", "transcriptional activation domain activity": 57600}, {"sequence": "ITGTAYLGKFLRNTLGYDLEVFHAELMVKADIFSLNPHEIMNLIVILFHLMLY", "transcriptional activation domain activity": 57900}, {"sequence": "ITHCPSTRVAYTYIVGLSTNAVMIGFVLCPHCFLAFQNPSQTLWFLSLFLLCL", "transcriptional activation domain activity": 47700}, {"sequence": "ITLYPPNPYTNEPVPIRPISYLHLSGLLNMYVIRRLRRENWIRIFFRILFPFF", "transcriptional activation domain activity": 26700}, {"sequence": "ITMCSVTSVGYLGIVRWLVICLGFQPYKLRCVTLVYLTHVMTFFCIIILGIFN", "transcriptional activation domain activity": 68800}, {"sequence": "ITMQQIQRDSDKYLCIQGVFELFRSPLYTVLTLDKSVLGPTVLVRLLTVLAER", "transcriptional activation domain activity": 39400}, {"sequence": "ITNFSHPVSWLGTISPLSSLISSSLSFLSEFFSLFPLFFSFFLLFSPSISSWF", "transcriptional activation domain activity": 67500}, {"sequence": "ITNGLYTGLGIKVPITKLQKYTPLEVALHSWRLVYMYFWSSFCLLIVCLIIFL", "transcriptional activation domain activity": 65800}, {"sequence": "ITPYPVLLSGEDTSSKISRMRKVLRDRARTDNWIYLIPTLSTLAWLFNYRCRT", "transcriptional activation domain activity": 66100}, {"sequence": "ITQMQQTDFYHVDQDDYVHSFVIHNSRLMWNVAIRAIVMRFIELQSQASLLQY", "transcriptional activation domain activity": 51800}, {"sequence": "ITQRLGENIICAVCITYLHSLLLVTILDRSEGCLLQYSLRMHIASKFQPSHQF", "transcriptional activation domain activity": 51500}, {"sequence": "ITQVEDRSKGYLIGLVKELVAEYVEDLNALVLLACSLKVGIQVSSAAGMIYKK", "transcriptional activation domain activity": 53600}, {"sequence": "ITVFNYTVYDIISPTGTNYLAFMCWIGLWSLVFHWILAITNCCNWLRYVTRFP", "transcriptional activation domain activity": 32700}, {"sequence": "ITVYMVIIIFCLFQFFLFLIIVGLVPRIDTTYFGWSCWGYGRIIFSWWISGSF", "transcriptional activation domain activity": 34400}, {"sequence": "ITWSQLRRRFTPGFETFLDIGIERGWYSCNNTLQVMVFRWVFIPWLQQELSAY", "transcriptional activation domain activity": 30600}, {"sequence": "IVCGCMGAAGFRYFLNLPFLWFFLLHWCWWFTNDYLLYHVLVQEHTLPFNKFV", "transcriptional activation domain activity": 32500}, {"sequence": "IVCRTEKTSHMLIDFSEHLRINVYVLGATFVRLVHLLKVKIPLVDPVLYIVRF", "transcriptional activation domain activity": 59900}, {"sequence": "IVEGLLGVDFIWQDNLPDLIDQFTNLLTLGLDFQAIDFHGGLSWNYLPSTFIN", "transcriptional activation domain activity": 63500}, {"sequence": "IVFLFLCFAGFWMCVVCLLLLLYTAVPLIPPHSSSSFDSFGLFMLLLVSCMRF", "transcriptional activation domain activity": 48000}, {"sequence": "IVFLLRVLIRCLPTLTQILDFELVSAELSLAELPDTQFKLKELGVSTKVVFTQ", "transcriptional activation domain activity": 45800}, {"sequence": "IVIPGGRPGSVGGGGWFGGSSVFLEGLEGLEDGVMFGNAWEFDLLDLEWLFPF", "transcriptional activation domain activity": 121000}, {"sequence": "IVITCLPVTLLLFGKMVDVLDDYYLGIFELVLLFFAFYIFPIFYIFARVILLV", "transcriptional activation domain activity": 53800}, {"sequence": "IVKGTDAQQLAQIVVANLFCAILMRQDYVINAFFNFFCSVPTSWPLAIRRVCA", "transcriptional activation domain activity": 53100}, {"sequence": "IVLGFLPIKSWQQHCFYIIMSFGSFVSTAFYSRFVELWGLLWPLWYLTILICV", "transcriptional activation domain activity": 42600}, {"sequence": "IVLSVLCSLLNTTLKYNPATWRVPYDHVVFKDSRQILVSYCLQFLLVLILYPV", "transcriptional activation domain activity": 46600}, {"sequence": "IVLYLRCFWLSVMFYTYSLFFIKMTFLLNYYRLLLVSKMRSVCIAAIVIIVLW", "transcriptional activation domain activity": 72100}, {"sequence": "IVMGKGTVHLCYLILSFFMYLLYSLLSHTQNILLDPLHTLFVSTFCLLHHSVF", "transcriptional activation domain activity": 56200}, {"sequence": "IVNFTLLVLIVPRLSIWCRPHSKRMHGAGVWDSFVLARASIFVSVLGVLCVAL", "transcriptional activation domain activity": 54400}, {"sequence": "IVQLHLKIHGAWLGRIRCDHCPKFHIEKFCWAACGGPQGLRRIIEHYLKVLNW", "transcriptional activation domain activity": 39000}, {"sequence": "IVRIVFFPTIFSFFNFFAVWFYQRSWILLPFPELYECFALVAMFYLLVVYVTP", "transcriptional activation domain activity": 46200}, {"sequence": "IVSPFSTSVRSVSSCVELIRQGRGALATSITGYKYLILYGQVMMMLKIFTFYF", "transcriptional activation domain activity": 55600}, {"sequence": "IVVVVSPGVLHVDVGITILYGEVIVGLRTGTKDVLLRWKIVQVERRWLGYTPE", "transcriptional activation domain activity": 30500}, {"sequence": "IVVYGANGGNLGENCNREFSERCVPVFRARATVFAELTWLILVSAWEFKSIRR", "transcriptional activation domain activity": 51000}, {"sequence": "IWCRKCNLGSILYVLARYGTLNCLLVSSLSLVTGFVVNMIFHIILGLLLARAY", "transcriptional activation domain activity": 65100}, {"sequence": "IWDLWTFGGLDFWGLGFGIWDLGLGFGDWDFIYPPPLPVSVFFLLFLSFGVCW", "transcriptional activation domain activity": 56900}, {"sequence": "IWGSANTLPKYLYFISRYFGLLGQLVVSTNLVPMFCFDYLVWSFGFLFTLILS", "transcriptional activation domain activity": 87200}, {"sequence": "IWIIQCCVLPLCLHFGSIFPGLQYTLLAFLPYYCCFSHYFPVLIPVLILICFI", "transcriptional activation domain activity": 63700}, {"sequence": "IWMILEIARSTLVFFRIYNFGHFVYNLVTKFDLMAIIPLLLVTLLPQIWFFCF", "transcriptional activation domain activity": 33800}, {"sequence": "IWRCTLFLLYGGHFEAALTCIRASASIGTFRDINVACGRNVAFFLSVLIEKKR", "transcriptional activation domain activity": 63000}, {"sequence": "IWRRQQVELWCNYRVPGRQWLFGHKRLRHVIHLIPGRTHLSLYSSVDRIFCLH", "transcriptional activation domain activity": 48600}, {"sequence": "IWSFVILLRETVLCGSIVLAISATSDYFYYGLWTFPPYQWLNFNLTQSLAVFY", "transcriptional activation domain activity": 66800}, {"sequence": "IWVAPWNAGKILFFLIRYLVFVDTSVSIVYLAGGPLTLSRCHTLFGWFTASFT", "transcriptional activation domain activity": 74800}, {"sequence": "IWVHHVAYVRNCLAQLIFTWLDEYWRPLSDACILPRLRSWVLSRFRDAQLVQG", "transcriptional activation domain activity": 78700}, {"sequence": "IYAYRESWGIDGAVFCKSWMLYWLLMDIHWQVMETLIACYIPMQFSPFFVFPW", "transcriptional activation domain activity": 61700}, {"sequence": "IYCAGWVFRYFFLFPYRLSLLLAATLFFFLALPIVLYFKNDEWQRWLFRFYCQ", "transcriptional activation domain activity": 57500}, {"sequence": "IYESALQTEHHKQGIGRSIAEAVKNRELSGFDQFQQIISFCLCVLKQLYRRFT", "transcriptional activation domain activity": 37600}, {"sequence": "IYETVNTITELSCLLPGGPWFPHARELWWYASEPAGVRYVAVLLSPTLRSLRL", "transcriptional activation domain activity": 69700}, {"sequence": "IYFTFRILLYAIWCALAKVHRWNKTTLWNTLCKYLSRLVAATKSRTKTHAPWL", "transcriptional activation domain activity": 49300}, {"sequence": "IYGSTAKPFPYTEGYHFLLKFVTEKFEKAEVLRIVRALGLFRPSLIALQMPLT", "transcriptional activation domain activity": 42800}, {"sequence": "IYIFPINTTIASFALGYLSIFYLIYAILTVLPTFFFDCPYGTPFSALMWRISH", "transcriptional activation domain activity": 62300}, {"sequence": "IYTNRFVSGDDGSNSKTKNLDSNMFSNDFNFENQFDEQVSEFCSKMNQVCGTR", "transcriptional activation domain activity": 74400}, {"sequence": "IYVELYFILSSIWFSRIYYMFGFLFLCYGLMIMTCATVTILMVYFLLCAENYN", "transcriptional activation domain activity": 58300}, {"sequence": "IYVIGCQPRFKTKLVEDKAEKRKCRIVLVPIFSETGVLVLLNIRTLEVRTVRF", "transcriptional activation domain activity": 51700}, {"sequence": "IYVLHLFSTFPIFPLFPLFPIFLNFFIFLILILIFPIFPIFPIFPIFLIFPIF", "transcriptional activation domain activity": 52900}, {"sequence": "IYYDPASRDKVYCSRAPIAYVYKRLVRMALESRFVQVAPVALKVLGIVLVMLY", "transcriptional activation domain activity": 62500}, {"sequence": "KAAAAPKKKKAGVSDEEEKEEEEAESTPVDEDPKPKTKKLAAAKKPAAAAAAK", "transcriptional activation domain activity": 33700}, {"sequence": "KAAAMKKVLAKPADKTKKTSSAKNDTKKAAAKAAATKPKARTTKTAKAAAATK", "transcriptional activation domain activity": 7370}, {"sequence": "KAAAVVASDSDEPVEKPKPRRRNSTSSAKSGKSTKSNRSSRDKTAAGVAAGAG", "transcriptional activation domain activity": 20700}, {"sequence": "KAAEKPAPAVSPSAPAAKAVHHNNNSNAKKQEQQQQQRAKSPAAASASAPAPA", "transcriptional activation domain activity": 16600}, {"sequence": "KAAKRGRNARRKRKDKPKGQDHEDEKSKINDDELEYASPSNATVTNGPQTSPD", "transcriptional activation domain activity": 14300}, {"sequence": "KAAPAPAASGDEGGEDEDEEDGDAVARRHQSKRSRRGIVVEESDEEDEGEPAA", "transcriptional activation domain activity": 41100}, {"sequence": "KAAPAQDGAAAGERNGAEAAEAGEEEEEAEGEAAAEPGAEAAEKPAPKPAAAA", "transcriptional activation domain activity": 42100}]}]}
